According to patent publication US20210070872A1 (AGENUS, published 2021):
Changes are numbered by the printed parent chain.

T1: biotinylated GITR (human, UniProt Q9Y5U5 26-161, limits assumed, biotinylated (sites not given))
T1 construct: also called GITR-bio; Biotin-GITR
T1 sequence: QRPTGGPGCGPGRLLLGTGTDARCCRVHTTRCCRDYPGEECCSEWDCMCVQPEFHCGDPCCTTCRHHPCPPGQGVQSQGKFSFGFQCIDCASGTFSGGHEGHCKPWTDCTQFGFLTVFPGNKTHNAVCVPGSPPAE

B1: germline variant antibody 46 (H1916E06 / K1916E06) (antibody, V domains shown)
VH: QVQLVQSGAEVKKPGASVKVSCKASGYTFTEYAMYWVRQAPGQGLEWMGLIRTFSGDLSYNQKFRGRVTMTVDTSISTAYMELSRLRSDDTAVYYCAKSGTVRGFAYWGQGTLVTVSS
VL: DIVMTQSPDSLAVSLGERATINCKSSQSLLNSGNQKNYLSWYHQKPGQPPKLLIYWASTRESGVPDRFTGSGSGTDFTLTISSLQAEDVAVYHCQNDYSYPYTFGQGTKLEIK
notes: IGHG1/IGKC expression vectors; measured from CHO culture supernatant; also called Antibody ID 46
B2: germline variant antibody 80 (H1917D07 / K1917D07) (antibody, V domains shown)
VH: B1 VH with A9T, Y35H, L45M, L58V
VL: B1 VL with G33S, S40T, H43Q, H93Y, Y100F
notes: IGHG1/IGKC expression vectors; measured from CHO culture supernatant; also called Antibody ID 80
B3: germline variant antibody 34 (H1916D04 / K1916D04) (antibody, V domains shown)
VH: B1 VH with E31D, L45M, M48I, L50V, D57G, L58V, S59T
VL: B1 VL with P8T, G33S, S40T, H43Q
notes: IGHG1/IGKC expression vectors; measured from CHO culture supernatant; also called Antibody ID 34
B4: germline variant antibody 55 (H1916F10 / K1916F10) (antibody, V domains shown)
VH: B1 VH with A9T, E31D, M48I, F54Y, D57G, L58V, S59T, R65Q
VL: B1 VL with H43Q, T69S, L84V, Y100F
notes: IGHG1/IGKC expression vectors; measured from CHO culture supernatant; also called Antibody ID 55
B5: germline variant antibody 59 (H1916G05 / K1916G05) (antibody, V domains shown)
VH: B1 VH with F54Y, D57G, L58V, G66D, T74K
VL: B1 VL with G33S, T69S, L84V
notes: IGHG1/IGKC expression vectors; measured from CHO culture supernatant; also called Antibody ID 59
B6: germline variant antibody 2 (H1916A03 / K1916A03) (antibody, V domains shown)
VH: B1 VH with Y35H, L45M, M48I, F54Y, D57G, L58V, V68A, T74K
VL: B1 VL with T69S, L84V, H93Y, D97E, Y100F
notes: IGHG1/IGKC expression vectors; measured from CHO culture supernatant; also called Antibody ID 2
B7: germline variant antibody 43 (H1916E03 / K1916E03) (antibody, V domains shown)
VH: B1 VH with A24G, L45M, M48I, L58V, R65K, V68A, T74K
VL: B1 VL with S40T, H43Q, L52M, L84V
notes: IGHG1/IGKC expression vectors; measured from CHO culture supernatant; also called Antibody ID 43
B8: germline variant antibody 36 (H1916D06 / K1916D06) (antibody, V domains shown)
VH: B1 VH with A24G, E31D, L45M, M48I, L50V, D57G, L58V, G66D, T74K
VL: B1 VL with G33S, S40T, L52M, T69S, L84V, A86E, Y100F
notes: IGHG1/IGKC expression vectors; measured from CHO culture supernatant; also called Antibody ID 36
B9: germline variant antibody 52 (H1916F05 / K1916F05) (antibody, V domains shown)
VH: B1 VH with A9T, A24G, E31D, F54Y, D57G, L58V, G66E, T74K
VL: B1 VL with S40T, H43Q, T69S, Y100F
notes: IGHG1/IGKC expression vectors; measured from CHO culture supernatant; also called Antibody ID 52
B10: germline variant antibody 33 (H1916D03 / K1916D03) (antibody, V domains shown)
VH: B1 VH with E31G, L45M, M48I, F54Y, D57G, L58V, S59T, R65Q
VL: B1 VL with T69S, L84V, D97E
notes: IGHG1/IGKC expression vectors; measured from CHO culture supernatant; also called Antibody ID 33
B11: germline variant antibody 31 (H1916D01 / K1916D01) (antibody, V domains shown)
VH: B1 VH with A9T, A24G, D57G, S59T, R65K, G66D, T74K, T112I, L113P
VL: B1 VL with G33S, S40T, H43Q
notes: IGHG1/IGKC expression vectors; measured from CHO culture supernatant; also called Antibody ID 31
B12: germline variant antibody 79 (H1917D04 / K1917D04) (antibody, V domains shown)
VH: B1 VH with A9T, A24G, Y35H, L45M, F54Y, D57G, L58V, S59T, G66E, T74K
VL: B1 VL with S40T, L52M, T69S, H93Y
notes: IGHG1/IGKC expression vectors; measured from CHO culture supernatant; also called Antibody ID 79
B13: germline variant antibody 29 (H1916C11 / K1916C11) (antibody, V domains shown)
VH: B1 VH with A24G, E31D, M48I, L50V, D57G, L58V, S59T, R65K, V68A
VL: B1 VL with G33S, H43Q, T69S
notes: IGHG1/IGKC expression vectors; measured from CHO culture supernatant; also called Antibody ID 29
B14: germline variant antibody 47 (H1916E08 / K1916E08) (antibody, V domains shown)
VH: B1 VH with E31D, L45M, L50V, F54Y, D57G, L58V, S59T, G66D, T74K, Y107D
VL: B1 VL with H43Q, L84V, Y100F
notes: IGHG1/IGKC expression vectors; measured from CHO culture supernatant; also called Antibody ID 47
B15: germline variant antibody 38 (H1916D08 / K1916D08) (antibody, V domains shown)
VH: QVQLVQSGTEVKKPGASVKVSCKGSGYTFTGYAMYWVRQAPGQGLEWIGVIKTYSGGVTYNQKFRGRVTMTVDKSISTAYMELSRLRSDDTAVYYCAKSGTVRGFAYWGQGTLVTVSS
VL: B1 VL with S40T, H43Q, T69S, H93Y
notes: IGHG1/IGKC expression vectors; measured from CHO culture supernatant; also called Antibody ID 38
B16: germline variant antibody 68 (H1917B01 / K1917B01) (antibody, V domains shown)
VH: B15 VH with V50L, K52R, K74T
VL: B1 VL with S40T, H43Q, L52M, H93Y
notes: IGHG1/IGKC expression vectors; measured from CHO culture supernatant; also called Antibody ID 68
B17: germline variant antibody 4 (H1916A05 / K1916A05) (antibody, V domains shown)
VH: B1 VH with G44S, L58V, R65Q, G66D, T74K
VL: B1 VL with G33S, L84V, H93Y
notes: IGHG1/IGKC expression vectors; measured from CHO culture supernatant; also called Antibody ID 4

What follows are binders tested against T1, biotinylated GITR (assay: BLI (Octet), biotin-GITR on streptavidin tips, antibody supernatant).
Method: Several hundred germlined antibodies were selected based on binding kinetics as determined by Octet measurements (Octet RED 96 system; ForteBio™ Inc., Menlo Park, Calif.). The experimental procedure was configured according to the instruction manual of the instrument. Biotin-GITR was bound to Streptavidin biosensor (SA) and PBS (pH 7.4) was used as a blank control. Briefly, the interaction analyses were conducted at 30° C. in running buffer (PBS, 0.05% Tween, pH7.4). Sensor tips were pre-wet for 10 minutes in running buffer immediately prior to use, and the micro plates used in the Octet were filled with 200 μl of sample or buffer per well and agitated at 800 rpm. For the experiments, commercially available precoated SA tips were used. Biotinylated GITR was loaded onto the ForteBio SA fibers in PBS pH7.4 for 10 minutes and washed for 4 minutes. For the association phase, the ligand-coated SA tips were immersed for 5 minutes in cell culture supernatant that was diluted 1:10 in running buffer prior to the measurement. Dissociation of the antibody-antigen complex was measured in wells containing the Octet buffer alone for 5 minutes. After each run, the tips were regenerated with Glycine (10 mM, pH 2.0). Affinity, Kₒₙ and Koff were determined with Octet evaluation software v6.3 using a 1:1 binding model with local full fitting.

Kd [nM]	koff [s⁻¹]	kon [M⁻¹ s⁻¹]	Binder
0.619	0.000248	400000	B1
0.696	0.000454	652000	B2
0.458	0.000255	557000	B3
1.27	0.00055	435000	B4
1.04	0.000312	299000	B5
4.23	0.00234	553000	B6
1.28	0.000477	373000	B7
0.44	0.00028	638000	B8
1.07	0.000426	397000	B9
0.0901	0.00101	1.12e+07	B10
0.418	0.000211	505000	B11
2.87	0.00129	450000	B12
1.06	0.000313	295000	B13
2.06	0.000804	391000	B14
0.0875	0.00075	8.57e+06	B15
1.55	0.000447	289000	B16
1.43	0.000501	351000	B17
